Data: patent publication US20210063414A1, “METHODS FOR PREVENTING AND/OR TREATING BONE LOSS CONDITIONS BY MODULATING IRISIN” (Dana-Farber Cancer Institute, Inc., priority 2018, published 2021)

Experiments:
Assay in all cases: Crosslinking/co-immunoprecipitation/mass spectrometry (TMT quantitative proteomics) to identify irisin receptors
Type in all cases: binding
[1] = biological target: T1, MLO-Y4 cell surface proteins (Mus musculus, UniProt P48997); conditions: co-precipitated protein Ivl (INVO_MOUSE)
T1 construct: endogenous in cells; host or cells: MLO-Y4
T1 sequence (P48997 1-467): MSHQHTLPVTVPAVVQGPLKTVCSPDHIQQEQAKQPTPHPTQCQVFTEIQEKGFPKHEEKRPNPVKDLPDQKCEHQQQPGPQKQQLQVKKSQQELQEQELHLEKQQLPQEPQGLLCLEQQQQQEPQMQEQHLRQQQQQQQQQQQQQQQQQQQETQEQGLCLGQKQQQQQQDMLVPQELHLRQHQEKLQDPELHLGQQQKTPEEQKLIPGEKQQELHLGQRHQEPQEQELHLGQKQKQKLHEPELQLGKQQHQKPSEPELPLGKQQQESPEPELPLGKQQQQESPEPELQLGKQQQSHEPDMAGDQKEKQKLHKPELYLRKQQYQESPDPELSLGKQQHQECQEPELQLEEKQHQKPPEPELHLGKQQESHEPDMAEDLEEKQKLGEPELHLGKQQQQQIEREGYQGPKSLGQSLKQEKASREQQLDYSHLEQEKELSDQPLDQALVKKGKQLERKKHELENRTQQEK
In short: (§1)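 Relative protein abundance came from 6-plex TMT MS3 quantitation on an Orbitrap Fusion Lumos, after in-gel trypsin digestion of Coomassie-stained SDS-PAGE lanes. Input was a Ni-NTA pulldown (250 mM imidazole elution) of lysates from murine MLO-Y4 cells. These cells were treated on ice with His-tagged irisin or adipsin (10 nM, 20 min) in serum-free medium, then crosslinked with 1.5 mM DTSSP for 30 min.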

[2] = biological target: T2, MLO-Y4 cell surface proteins (Mus musculus, UniProt Q921N7); conditions: co-precipitated protein Tmem70 (TMM70_MOUSE)
T2 construct: endogenous in cells; host or cells: MLO-Y4
T2 sequence (Q921N7 78-253): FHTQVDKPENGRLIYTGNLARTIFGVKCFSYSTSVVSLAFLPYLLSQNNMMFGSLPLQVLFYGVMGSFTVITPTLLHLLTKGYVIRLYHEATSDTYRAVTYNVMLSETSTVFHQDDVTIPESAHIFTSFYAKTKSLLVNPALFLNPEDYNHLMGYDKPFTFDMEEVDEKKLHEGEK
In short: as §1

[3] = biological target: T3, MLO-Y4 cell surface proteins (Mus musculus, UniProt Q99KR7); conditions: co-precipitated protein Ppif (PPIF_MOUSE)
T3 construct: endogenous in cells; host or cells: MLO-Y4
In short: as §1

T3 sequence (Q99KR7 30-206): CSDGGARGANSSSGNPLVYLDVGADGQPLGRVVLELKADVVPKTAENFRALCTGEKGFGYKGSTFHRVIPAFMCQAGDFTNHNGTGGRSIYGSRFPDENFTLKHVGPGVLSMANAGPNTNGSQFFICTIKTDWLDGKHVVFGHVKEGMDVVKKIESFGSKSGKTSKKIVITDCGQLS

TMT signal-to-noise ratio [1]: 222.079 | TMT signal-to-noise ratio [2]: 88.4078 | TMT signal-to-noise ratio [3]: 249.839
Substance: adipsin
